# From the nanobody polyreactivity screen of Harvey et al. (2022)
# Assay: yeast display, Sf9 membrane polyspecificity reagent, FACS + sequencing; frameworks hold sequencing errors
# Method in brief: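 Nanobodies from a synthetic yeast display library (Saccharomyces cerevisiae BJ5465), induced 36–48 hours with galactose, were stained 1 hour at 4 °C with 10% biotinylated, detergent-solubilized Sf9 membrane reagent, enriched on streptavidin microbeads, then FACS-sorted. Anti-HA (expression) and streptavidin (reagent binding) fluorescence set low and high (top ~1%) gates. Polyreactivity labels come from the gate of origin. Genes were colony-PCR amplified, MiSeq 2 × 250 sequenced and filtered by CDR length.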
row,Sequence,polyreactivity (PSR sort gate)
1,QVQLVESGGGLVQAGGSLRLSCAASGRTFKYNAMGWYRQAPGKERELVAAISDRGTRKYYADSVKGRFTISRDNAKNSVYLQMNSLKPEDTAVYYCAARVTGKDRWYIYYWGQGTQVTVSS,high polyreactivity
2,QVQLVESGGGLVQAGGSLRLSCAASGRTFKYNAMGWYRQAPGKERELVAVIRYSGGTTYYADSVKGRFTISRDNAKNTVYLQMNSLKPEDTAVYYCNADGPYVLPGWYFRTDNSWGQGTQVTVSS,low polyreactivity
3,QVQLVESGGGLVQAGGSLRLSCAASGRTFKYNAMGWYRQAPGKERELVAVISRSTGRTYYADSVKGRFTISRDNAKNTFYLQMNSLKPEDTAVYSCNRVSRQYYYQRGFEYDYWGQGTQVTVSS,high polyreactivity
4,QVQLVESGGGLVQAGGSLRLSCAASGRTFKYYAMGWYRQAPGKERELVAAINSGGITYYADSVKGRFTISRDNAKNTVYLQMNSLKPEDTAVYYCAKVWKIGVLRYPSYGYYYWGQGTQVTVSS,high polyreactivity
5,QVQLVESGGGLVQAGGSLRLSCAASGRTFKYYAMGWYRQAPGKERELVAAITSTGGSTYYADSVKGRFTISRDNAKNTVYLQMHSLKPEDTAVYYCNRYTQYRDRSDNHWGQGTQVTVSS,high polyreactivity
6,QVQLVESGGGLVQAGGSLRLSCAASGRTFLGYAMGWSRQAPGKERELVAAISTGGGRTYYADSVKGRFTISRDNAKNTVYLQMNSLKPEDTAVYYCATVPRHGAPTTFNYWGQGTQVTVSS,high polyreactivity
7,QVQLVESGGGLVQAGGSLRLSCAASGRTFLGYAMGWYRQAPGKERELVAAISSSGGSTYYADSVKGRVTISRDNAKNTVYFQMNCLKPEDTAVYYCAKRKRATGASGHGFGYWGQGTQVTVSS,high polyreactivity
8,QVQLVESGGGLVQAGGSLRLSCAASGRTFLINAMGWYRQAPGKEREMVAAITQSGGSTYYADSVKGRFTISRDNAKYTVYLQMNSLKPEDTAVYNCNATPDSVRWDYALSVVRYEYWGQGTQVTVSS,low polyreactivity
9,QVQLVESGGGLVQAGGSLRLSCAASGRTFLINSMGWYRQAPGKERELVAGITRNGGTTYYADSVKGRFTISRDNAKNTVYLQMNSLKPEDTAVYYCAKRYPSWFNYWGQGTQVTVSS,high polyreactivity
10,QVQLVESGGGLVQAGGSLRLSCAASGRTFLIYAMGWYRQAPGKERELVAAITNGVDSTYYADSVKGRFTISRDNAKNTVYLQMNSLKPEDTAVYYCNADTVVEWYSPSREYDYWGQGTQVTVSS,low polyreactivity
11,QVQLVESGGGLVQAGGSLRLSCAASGRTFLIYAMGWYRQAPGKERELVAGITRGSTTYADSVKGRFTISRDNAKNTVYLQMNSLKPEDTAVYYCAARNYSVATYGEYDDWGQGTQVTVSS,high polyreactivity
12,QVQLVESGGGLVQAGGSLRLSCAASGRTFLIYAMGWYRQAPGKETEFVAAIRGRGGSTYYADSVKGRFTISRDNAKNTVYFQMNCLKPVDTAVYYCAATFPGRSYRIRGYGYDYWGQGTQVTVSS,high polyreactivity
13,QVQLVESGGGLVQAGGSLRLSCAASGRTFLLNAMGWYRQAPGKERELVAAISRGGSTYYADSVKGRFTISRDNAKNTVYLQMNSLKPEDTAVYYCAARFWISHTHWDAGDYWGQGTQVTVSS,low polyreactivity
14,QVQLVESGGGLVQAGGSLRLSCAASGRTFLLYAMGWYRQAPGKERELVARITGRGGRTYYADSVKGRFTISRDNAKNTVYLQMNSLKPEDTAVYYCNKRYPLGTEYYYWGQGTQVTVSS,high polyreactivity
15,QVQLVESGGGLVQAGGSLRLSCAASGRTFLRYAMGWSRQAPGTETELVAAISSDGSTNYADSVKGRFTISRDNAKNTVYLQMNSLKPEDTAVYYCDADPQKWYTGYDYWGQGTQVTVSS,low polyreactivity
16,QVQLVESGGGLVQAGGSLRLSCAASGRTFLRYAMGWYREAPGKERELVAAITYGGRTNFADSVKGRFTISRDNAKNTVYFQMNSLKPEDTAVYYCAADRTYYYGLRVDYWGQGTQVTVSS,high polyreactivity
17,QVQLVESGGGLVQAGGSLRLSCAASGRTFLRYAMGWYRQAPGKERELVAAISWSGGRTYYADSVKGRFTISRDNAKNTVYLQMNSLKPEDTAVYYCNKVVLYGAHYYYWGQGTQVTVSS,high polyreactivity
18,QVQLVESGGGLVQAGGSLRLSCAASGRTFLTYVMGRYRQAPGKERELVAAITRGGRTNYADSVKGRFTISRDNAKNTVYLQMNSLKPEDTAVYYCARDDTPRYDYWGQGTQVTVSS,low polyreactivity
19,QVQLVESGGGLVQAGGSLRLSCAASGRTFLVNAMGWYRQAPGKERELVAAISSVGSTNYADSVKGRFTISRDNAKNTVYLQMNSLKPEVTSVYYCAKDAEYDCGQGTQVTVSS,low polyreactivity
20,QVQLVESGGGLVQAGGSLRLSCAASGRTFLWNAMGWYRQAPGKERELVAAITSGGRTTYADSVKGRFTISRDNAKNTVYLQMNSLKPEDTAVYYCAAVSANQDFDYWGQGTQVTVSS,high polyreactivity
21,QVQLVESGGGLVQAGGSLRLSCAASGRTFLYNAMGWYRQAPGKERELVAAISWSGGSTYYADSVKGRFTISRDNAKNTVYLQMNSLKPEDTAVYYCAATGRRSGFYYWGQGTQVTVSS,high polyreactivity
22,QVQLVESGGGLVQAGGSLRLSCAASGRTFLYVMGWNIQAPGKERELVAASSRGGSTSYADSVKGRFTISRDNAKNTVYLQMNSMKPEVTAVYYCAATNYWRDGYWGQGTQVTVSS,high polyreactivity

row,Sequence,polyreactivity (PSR sort gate)
1,QVQLVESGGGLVQAGGSLRLSCAASGRTFLYYAMGWYRQAPGKERELVAAIDWSDDSTYYADSVKGRFTISRDNAKNTVYLQMNSLKPEDTAVYYCATDGLYLSWQYSWEELYYWGQGTQVTVSS,high polyreactivity
2,QVQLVESGGGLVQAGGSLRLSCAASGRTFLYYAMGWYRQAPGKERELVAAIRRGSSTYYADSVKGRFTISRDNAKNTVYLQMNSLKPEDTAVYYCAARGRYRIGPGRYGKRYDYWGQGTQVTVSS,high polyreactivity
3,QVQLVESGGGLVQAGGSLRLSCAASGRTFLYYAMGWYRQEPGKERELVAAITGRGGSTYNADSVKGLFTISRDNAQNTVYLKMNILKPEDTAVYYCAARDNWIRRDGYWGQGTQVTVSS,high polyreactivity
4,QVQLVESGGGLVQAGGSLRLSCAASGRTFLYYAMGWYRQSPGKERELVAAINRSGRTYYADSVKGRFTISRDNAKNTVYLQMNSLKPEDTAVYYCAADTRYPYRAYDYWGQGTQVTVSS,high polyreactivity
5,QVQLVESGGGLVQAGGSLRLSCAASGRTFLYYTMGWYRQAPGKERELVAAITSGTSTNYADSVKGRFTIARDNAKNTVYLQMNSQKPEDTAVYYCNKRAARSLNGYPLYGYYSWGQGTQVTVSS,low polyreactivity
6,QVQLVESGGGLVQAGGSLRLSCAASGRTFNAYAMGWYRQAPGKERELVAAISSGGSTYYADSVKGRFTISRDNAKYTVYLQMNSLKPEDTAVYYCNKVYGWRQFDYWGQGTQVTVSS,high polyreactivity
7,QVQLVESGGGLVQAGGSLRLSCAASGRTFNGYAMGWYRQAPGKERELVASITLRGGSTYYADSVKGRFTISRDNAKNTVYLQMNSLKPEDTAVYYCAVGKFVRYPGRWRYRYDYWGQGTQVTVSS,high polyreactivity
8,QVQLVESGGGLVQAGGSLRLSCAASGRTFNINALGWYRQAPGKERELVAAITWTGGGNTYYADSVKGRFTISRDNAKNTVYLQMNSLKPEDTAVYYCNADGRNYFYEGFWEGNYWGQGTQVTVSS,low polyreactivity
9,QVQLVESGGGLVQAGGSLRLSCAASGRTFNIYAMGWYRQAPGKERELVAAISSGGSTYYADSVKGRFTISRDNAKNTVYLQMNSLKPEDTAVYYCAAVEFELRGDYWGQGTQVTVSS,low polyreactivity
10,QVQLVESGGGLVQAGGSLRLSCAASGRTFNKYAMGWYRQAPGKERELVAAITGSGGSTYYADSVKGRFTISRDNAKNTVYLEMNSLKPEDTAVYYCAAYAYGVWHSQDGGNYWGQGTQVTVSS,low polyreactivity
11,QVQLVESGGGLVQAGGSLRLSCAASGRTFNRNAMGWYRQAPGKERELVAAISWSGGRTYYADSVKGRFTISRDTAKNTVYLQMNSLKPEDTAVYYCAAPGKKYWGQGTQVTVSS,high polyreactivity
12,QVQLVESGGGLVQAGGSLRLSCAASGRTFNRYAMGWYRQAPGKERELVAAINSVGSTYYADSVKGRFTISRDNAKNTVYLQMNSLKPEDTAVYYCNAVQGSRFGYWGQGTQVTVSS,high polyreactivity
13,QVQLVESGGGLVQAGGSLRLSCAASGRTFNSNAMGWYRQAPGKERELVAAITRSGGSTYYADSVKGRFTISRDNAKNTVYLQMNSLKPEDTAVYYCNKTRWTQRTSFDYWGQGTQVTVSS,low polyreactivity
14,QVQLVESGGGLVQAGGSLRLSCAASGRTFNWYAMGWYRQAPGKERELVAAIRVNGGITYYADSVKGRFTISRDNAKNTVYLQMISLKPEDTAVYYCAVYSRQGLGYWGQGTQVTVSS,high polyreactivity
15,QVQLVESGGGLVQAGGSLRLSCAASGRTFNYNAMGWYRQAPGKERELVAAINYNGGSTYYADSVKGRFTISRDNAKNTVYVQMNSLKPEDTAVYYCAADYNEYDWGQGTQVTVSS,low polyreactivity
16,QVQLVESGGGLVQAGGSLRLSCAASGRTFNYYAMGWYRQAPGKERELVAAISWSGTPTYYADSVKGRFTISRDHAKNTVYLQMNSLKPEDTAVYYCAAYLVSYPRGNYIRYDYWGQGTQVTVSS,low polyreactivity
17,QVQLVESGGGLVQAGGSLRLSCAASGRTFNYYAMGWYRQAPGKERESVAAISWRGGSTYYADSVKGRFTISRDNAKNTVYLQMNSLKPEDTAVYYCNKYFSWRPYSYYYWGQGTQVTVSS,high polyreactivity
18,QVQLVESGGGLVQAGGSLRLSCAASGRTFNYYPMGWYRQAPGKERELVAAISRSGTPTYYADSVKGRFTISRDNAKNTVYLQMNSLKPEDTAVYYCAAYLVSYPRGNYIRYDYWGQGTQVTVSS,low polyreactivity
19,QVQLVESGGGLVQAGGSLRLSCAASGRTFNYYTMGWNRQAPGKEREFVAAITISGARTYYADSVKGRFTISRDNAKNTVYLQMNSLKPEDTAVYYCAARRRYRSRVTPVGYNYWGQGTQVTVSS,high polyreactivity
20,QVQLVESGGGLVQAGGSLRLSCAASGRTFPENAKGWYTQAPGKEREFVAVISSGGGSTTYADSVKGRFTISRDNAKNTVYLQMNSLKPEDTAVYYCATEYYFHGYWITYSWGQGTQVTVSS,low polyreactivity
21,QVQLVESGGGLVQAGGSLRLSCAASGRTFPENTMGWYRQAPAKERELVAAISSTTSTNYADSVKGRFTISRDNAKNTVYLQMNSLKPEDTAVYFWADDFWEYDGPWYANDYESWGLGTQVTVSS,low polyreactivity
